Reference: patent CN113583114A (YANG SHENG TANG CO LTD; UNIV XIAMEN, dated 2021)

B1: 人源单克隆抗体6G9 (antibody, V domains shown)
VH: QVQLVQSGAEVKKLGASVKVSCKASGYSFTDYYIHWVRQAPGQGLEWMGWINPISGGTNYAQKFQGRVTMTRDTSITTVYMELSRLRSDDTAVYYCARDLPPYNWNGPLRSQRFDCWGQGTLVTVSS
VL: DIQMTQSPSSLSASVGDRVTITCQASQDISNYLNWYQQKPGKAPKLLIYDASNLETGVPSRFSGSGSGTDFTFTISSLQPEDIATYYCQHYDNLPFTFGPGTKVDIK
B2: 人源单克隆抗体3C11 (antibody, V domains shown)
VH: EVQLVESGGGLVQPGGSLRLSCAASGFTVSRNYMSWVRQAPGKGLEWVSVIYSGGSTYYADSVKGRFTISRDNSKNTLYLQMNSLRAEDTAVYYCARGLVASYRYGMDVWGQGTTVTVSS
VL: DIQMTQSPVSLSASIGDRVTITCQASQDITNYLNWYQQKPGKAPKLLIYDASNLETGVPSRFSGSGSGTDFTFTISSLQPEDIATYYCHQYDNLPVTFGGGTKVEIK
B3: 人源单克隆抗体5C6 (antibody, V domains shown)
VH: EVQLVESGGGVVQPGRSLRLSCAASGFTFRTYAMHWVRQAPGKGLEWVAVMWNDGSNKYYADSVKGRFTISRDNSKNTLYLEMNSLRAEDTAVYYCAREGVAAAGSSSDAFDIWGQGTMVTVSS
VL: DIQMTQSPSSLSASVGDRVTITCRASQSISNFLNWYQQKPGKAPKLLIYAASSLQSGVPSRFSGSGSGTDFTLTISSLQPEDFATYYCQQSYSTLYSFGQGTKLEIK

target: SARS-CoV-2Sde18 (SARS-CoV-2 S蛋白, C末端截短18个氨基酸) on VSV pseudovirus SARS-CoV-2VSVpp (SARS-CoV-2, UniProt P0DTC2 14-1255); test: cell-based or functional assay

| Binder | 假病毒感染阻断率 | 半抑制浓度(IC50), 假病毒中和 (GFP阳性细胞数减少) [ng/mL] |
| --- | --- | --- |
| B1 | 80 % (at 0.22 μg/mL) | 0.56 |
| B2 | 80 % (at 0.22 μg/mL) | 62.9 |
| B3 | 80 % (at 0.22 μg/mL) | 4.06 |
